According to patent US20160199445A1, “USE OF ARPIN A NEW INHIBITOR OF THE ARP2/3 COMPLEX FOR THE DIAGNOSIS AND TREATMENT OF DISEASES” (CENTRE NATIONAL DE LA RECHERCHE SCIENTIFIQUE, priority 2013, published 2016):
No end group written: not given here. *: point of attachment. 5‑TAMRA = 5-carboxytetramethylrhodamine label, CN(C)c1ccc2c(-c3ccc(C(=O)*)cc3C(=O)[O-])c3ccc(=[N+](C)C)cc-3oc2c1

Biological target: Purified Arp2/3 complex
Assay: fluorescence anisotropy, labelled ArpinA peptide titrated with purified Arp2/3 complex

Kd: 384 nM
B1: ArpinA peptide labelled with 5-TAMRA at the N-terminus (peptide)
peptide: {5‑TAMRA}-EIREQGDGAEDEEWDD
